Experimental findings from PMC7921410, “Structure of mammalian Mediator complex reveals Tail module architecture and interaction with a conserved core” (Nature Communications, 2021) are described below.

Holding throughout (assay): cryo-EM structure; endogenous mouse Mediator immunopurified from CH12 nuclear extract through 3×FLAG-MED19 or 3×FLAG-MED25; eluted in 50 mM HEPES pH 7.9, 100 mM KCl, 5% glycerol, 1 mM EDTA, 0.005% NP-40; map at 4.0 Å overall, focused refinement of the MED1 and knob/hook ends (6-10 Å)
Conditions in all cases: both partners purified

One assay has as its target T1, MED17 (mouse (Mus musculus; endogenous in CH12), UniProt Q8VCD5 1-649).
T1 construct: MED17, Mus musculus, endogenous Head module scaffold subunit of Mediator; source: endogenous, CH12 mouse B lymphoma nuclear extract; immunopurified as part of Mediator (FLAG M2 agarose, FLAG peptide elution)
T1 sequence (looked up): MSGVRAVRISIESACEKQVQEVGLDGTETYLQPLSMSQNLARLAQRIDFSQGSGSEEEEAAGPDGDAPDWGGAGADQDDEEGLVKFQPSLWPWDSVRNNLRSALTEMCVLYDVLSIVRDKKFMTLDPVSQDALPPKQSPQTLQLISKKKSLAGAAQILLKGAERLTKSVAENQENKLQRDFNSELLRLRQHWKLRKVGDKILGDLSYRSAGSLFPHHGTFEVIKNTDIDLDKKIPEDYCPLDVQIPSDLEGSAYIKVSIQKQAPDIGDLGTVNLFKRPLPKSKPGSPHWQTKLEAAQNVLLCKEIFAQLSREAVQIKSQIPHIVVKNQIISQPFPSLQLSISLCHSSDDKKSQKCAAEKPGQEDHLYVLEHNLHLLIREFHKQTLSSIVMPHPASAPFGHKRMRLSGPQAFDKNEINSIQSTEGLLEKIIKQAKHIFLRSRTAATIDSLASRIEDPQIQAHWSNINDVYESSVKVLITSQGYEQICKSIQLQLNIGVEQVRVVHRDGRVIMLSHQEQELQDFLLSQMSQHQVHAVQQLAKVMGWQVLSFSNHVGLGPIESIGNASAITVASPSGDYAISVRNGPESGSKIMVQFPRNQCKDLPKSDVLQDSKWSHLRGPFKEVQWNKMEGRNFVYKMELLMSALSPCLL

Another assay has as its target T2, MED27 (mouse (Mus musculus; endogenous in CH12), UniProt Q9DB40 1-311).
T2 construct: MED27, Mus musculus, endogenous upper Tail subunit of Mediator; source: endogenous, CH12 mouse B lymphoma nuclear extract; immunopurified as part of Mediator (FLAG M2 agarose, FLAG peptide elution)
T2 sequence (looked up): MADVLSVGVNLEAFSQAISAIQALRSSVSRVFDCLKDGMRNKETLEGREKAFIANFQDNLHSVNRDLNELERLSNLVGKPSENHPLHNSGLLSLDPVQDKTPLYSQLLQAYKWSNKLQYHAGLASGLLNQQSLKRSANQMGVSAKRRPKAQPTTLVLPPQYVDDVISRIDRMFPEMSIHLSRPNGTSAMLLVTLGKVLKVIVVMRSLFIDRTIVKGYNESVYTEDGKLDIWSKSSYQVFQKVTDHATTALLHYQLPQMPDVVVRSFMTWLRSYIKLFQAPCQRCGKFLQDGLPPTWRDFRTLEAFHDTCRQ

Another assay addresses T3, MED24 (mouse (Mus musculus; endogenous in CH12), UniProt Q99K74 1-987).
T3 construct: MED24, Mus musculus, endogenous lower Tail subunit of Mediator; source: endogenous, CH12 mouse B lymphoma nuclear extract; immunopurified as part of Mediator (FLAG M2 agarose, FLAG peptide elution)
T3 sequence (looked up): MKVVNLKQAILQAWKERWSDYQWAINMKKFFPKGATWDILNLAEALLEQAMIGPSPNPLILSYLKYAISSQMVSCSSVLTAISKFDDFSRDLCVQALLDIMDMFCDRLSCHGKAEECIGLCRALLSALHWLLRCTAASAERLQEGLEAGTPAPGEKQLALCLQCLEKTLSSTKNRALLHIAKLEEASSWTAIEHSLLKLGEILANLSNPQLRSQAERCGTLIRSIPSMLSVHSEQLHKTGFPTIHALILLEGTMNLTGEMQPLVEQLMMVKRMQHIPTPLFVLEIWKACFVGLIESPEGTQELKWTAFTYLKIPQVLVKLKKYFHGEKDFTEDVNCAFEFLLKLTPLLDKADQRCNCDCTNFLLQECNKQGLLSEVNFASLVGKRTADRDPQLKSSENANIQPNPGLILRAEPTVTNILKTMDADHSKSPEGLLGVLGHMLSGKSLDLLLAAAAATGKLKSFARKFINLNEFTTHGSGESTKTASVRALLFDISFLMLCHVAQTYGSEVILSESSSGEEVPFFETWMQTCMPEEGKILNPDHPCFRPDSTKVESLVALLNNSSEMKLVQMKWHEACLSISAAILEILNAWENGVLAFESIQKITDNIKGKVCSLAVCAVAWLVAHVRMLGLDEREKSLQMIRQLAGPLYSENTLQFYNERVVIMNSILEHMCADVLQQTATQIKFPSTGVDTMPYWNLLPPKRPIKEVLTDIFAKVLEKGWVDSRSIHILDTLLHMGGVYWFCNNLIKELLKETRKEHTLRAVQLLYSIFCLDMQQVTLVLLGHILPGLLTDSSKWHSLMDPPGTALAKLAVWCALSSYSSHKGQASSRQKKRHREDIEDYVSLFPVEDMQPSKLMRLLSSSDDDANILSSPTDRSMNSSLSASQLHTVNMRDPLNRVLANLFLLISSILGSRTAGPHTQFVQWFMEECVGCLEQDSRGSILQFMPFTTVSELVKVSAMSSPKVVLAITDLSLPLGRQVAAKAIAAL

The target of another assay is T4, MED23 (mouse (Mus musculus; endogenous in CH12), UniProt Q80YQ2 1-1367).
T4 construct: MED23, Mus musculus, endogenous lower Tail subunit of Mediator; Model building started from the X-ray structure of human MED23 (PDB 6H02); source: endogenous, CH12 mouse B lymphoma nuclear extract; immunopurified as part of Mediator (FLAG M2 agarose, FLAG peptide elution)
T4 sequence (looked up): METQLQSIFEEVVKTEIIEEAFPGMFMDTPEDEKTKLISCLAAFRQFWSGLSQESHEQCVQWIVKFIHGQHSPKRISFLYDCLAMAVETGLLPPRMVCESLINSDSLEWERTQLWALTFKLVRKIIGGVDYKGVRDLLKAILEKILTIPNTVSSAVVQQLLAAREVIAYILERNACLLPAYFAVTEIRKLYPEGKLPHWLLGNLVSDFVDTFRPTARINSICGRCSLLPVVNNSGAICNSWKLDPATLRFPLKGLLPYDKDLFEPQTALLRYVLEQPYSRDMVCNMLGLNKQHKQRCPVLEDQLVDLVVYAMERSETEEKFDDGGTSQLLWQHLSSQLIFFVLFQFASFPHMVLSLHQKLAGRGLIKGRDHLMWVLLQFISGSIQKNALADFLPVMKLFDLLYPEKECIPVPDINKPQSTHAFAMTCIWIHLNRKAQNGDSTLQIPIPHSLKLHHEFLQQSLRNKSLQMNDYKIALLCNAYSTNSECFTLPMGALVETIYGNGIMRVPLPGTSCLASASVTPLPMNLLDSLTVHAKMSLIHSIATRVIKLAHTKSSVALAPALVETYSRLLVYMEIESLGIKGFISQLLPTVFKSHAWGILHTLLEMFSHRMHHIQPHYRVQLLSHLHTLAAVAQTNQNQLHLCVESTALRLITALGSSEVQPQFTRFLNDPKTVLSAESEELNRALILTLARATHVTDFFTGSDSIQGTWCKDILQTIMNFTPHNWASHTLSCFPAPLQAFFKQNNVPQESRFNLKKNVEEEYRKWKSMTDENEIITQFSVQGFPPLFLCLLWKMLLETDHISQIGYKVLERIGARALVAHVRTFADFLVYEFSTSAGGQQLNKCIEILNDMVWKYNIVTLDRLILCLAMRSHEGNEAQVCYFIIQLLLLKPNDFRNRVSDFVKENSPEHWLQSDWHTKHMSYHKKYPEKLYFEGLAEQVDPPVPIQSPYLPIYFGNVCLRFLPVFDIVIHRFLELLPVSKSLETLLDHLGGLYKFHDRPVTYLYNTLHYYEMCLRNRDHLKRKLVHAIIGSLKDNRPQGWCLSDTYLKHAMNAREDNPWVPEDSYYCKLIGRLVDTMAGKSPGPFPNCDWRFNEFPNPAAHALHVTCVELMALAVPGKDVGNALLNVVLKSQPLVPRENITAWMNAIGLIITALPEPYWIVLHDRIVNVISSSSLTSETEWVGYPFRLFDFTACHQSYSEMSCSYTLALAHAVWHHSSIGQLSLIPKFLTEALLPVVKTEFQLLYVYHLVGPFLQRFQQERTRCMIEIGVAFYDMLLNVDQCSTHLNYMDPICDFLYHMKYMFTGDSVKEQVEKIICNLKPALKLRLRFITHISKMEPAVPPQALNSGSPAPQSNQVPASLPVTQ

B1: MED22 (natural protein, mouse (Mus musculus; endogenous in CH12), UniProt Q62276 1-200, looked up)
chain: MAQQRALPQSKETLLQSYNKRLKDDIKSIMDNFTEIIKTAKIEDETQVSRATQGEQDNYEMHVRAANIVRAGESLMKLVSDLKQFLILNDFPSVNEAIDQRNQQLRALQEECDRKLITLRDEVSIDLYELEEEYYSSSSSLCEANDLPLCEAYWRLDLDADSADGLSAPLLASPETGAGPLQSAAPVHSHGGGPGPTEHT
notes: MED22, Mus musculus, endogenous Head module subunit of Mediator; source: endogenous, CH12 mouse B lymphoma nuclear extract; immunopurified as part of Mediator (FLAG M2 agarose, FLAG peptide elution)
Turning to B1, in the assay with MED17, the binding result was “binds”.

B2: MED20 (natural protein, mouse (Mus musculus; endogenous in CH12), UniProt Q9R0X0 1-212, looked up)
chain: MGVTCVSQMPVAEGKSLQQTVELLTKKLEMLGAEKQGTFCVDCETYHTAASTLGSQGQAGKLMYVMHNSEYPLSCFALFENGPCLIADTNFDVLMVKLKGFFQSAKASKIETRGTRYQYCDFLVKVGTVTMGPSARGISVEVEYGPCVVASDCWSLLLEFLQSFLGSHAPGAPTVFGNRHDAVYGPADTMIQYMELFNKIRKQQQVPVAGIR
notes: MED20, Mus musculus, endogenous Head module subunit of Mediator; source: endogenous, CH12 mouse B lymphoma nuclear extract; immunopurified as part of Mediator (FLAG M2 agarose, FLAG peptide elution)
For B2, the binding result in the assay with MED27 and with MED17 was “binds” in each case.

B3: MED16 (natural protein, mouse (Mus musculus; endogenous in CH12), UniProt Q6PGF3 1-828, looked up)
chain: MDLAYVCEWEKWAKSTYCPSLPLACAWSCRNLIAFTTDLRNDDQDLTHMIHILDTEHPWEVHSVSSGHSEAITCLEWDQSGSRLLSADADGQIKCWSMADHLANSWESSVGSQVEGDPIVALSWLHNGVKLALHVEKSGASSFGEKFSRVKFSPSLTLFGGKPMEGWIAVTVSGLVTVSLLKPSGQVLTSTESLCRLRGRVALADIAFTGGGNIVVAAADGSSASPVKFYKVCVSVVSEKCRIDTEILPSLFMRCTTDPNRKDRFPAITHLKFLARDMSEQVLLCASSQTSSLVECWSLRKEGLPVNNIFQQISPVVGDKQPMILKWRILSATNDLDRVSAVALPKLPISLTNTDLKVASDTQFYPGLGLALAFQDGSVHMVHRLSLQTMAVFYSSAPRSLDEPALKRPRTTCPAVHFKAMQLSWTSLALVGIDNHGKLSMLRISPSLGHPLEPKLALQHLLFLLEYCMVTGYDWWDILLHVQPGMVQSLVERLHEEYTRQKPALQQVLSTRILAMKASLCKLSPCTVARVCDYHTKLFLMAITSTLKSLLRPHFLNTPDKSPGDRLAEICAKITDVDIDKVMINLKTEEFVLDMNTLQALQQLLQWVGDFVLYLLVSLPNQGSPLRPGHSFLRDGTSLGMLRELMVVIRIWGLLKPSCLPVYTATSDTQDSMSLLFRLLTKLWICCRDEGAASEPDEGLVDECCLLPSQLLVPNLDWLPASDGLVSRLQPKQPLRLRFGRAPTLPSSTSTLQLDGLTRAPGQPKIDHLRRLHLGAYPTEECKACTRCGCVTMLKSPNKTTAVTQWEQRWIKNCLCGGLWRRVPLSCS
notes: MED16, Mus musculus, endogenous lower Tail subunit of Mediator; source: endogenous, CH12 mouse B lymphoma nuclear extract; immunopurified as part of Mediator (FLAG M2 agarose, FLAG peptide elution)
For the molecule B3, the binding result with MED24 and with MED23 was “binds” throughout.
